Experiments:
[1] = target: OR2, RASSL derived from the human kappa opioid receptor (human); experiment: cell-based or functional assay
[2] = target: OR1, RASSL derived from the human kappa opioid receptor (human); experiment: cell-based or functional assay
[3] = target: OR2, RASSL derived from the human kappa opioid receptor (human); experiment: binding to the receptor expressed in COS-7 and CHO-KI cells; Ki, method only 'as previously described'
[4] = target: OR1, RASSL derived from the human kappa opioid receptor (human); experiment: as above

Dynorphin A (from UniProt P01213 207-223) (peptide)
EC50, signaling (activation of G protein-mediated signal) [1]: 1080 nM | EC50, signaling (activation of G protein-mediated signal) [2]: 61 nM | Ki [3]: 125 nM | Ki [4]: 14.6 nM

Reference: patent US20030167476A1
